Measurements from patent US20190375839A1 (JIANGSU HENGRUI MEDICINE, published 2019).

Assays:
[1] = molecular target: T1, human TIM-3 full length, overexpressed on CHO-S cells (human, UniProt Q8TDQ0 22-301); experiment: cell-based ELISA on fixed CHO-S cells overexpressing human TIM-3, HRP-labeled secondary antibody, OD450
T1 construct: cells fixed with 4% PFA on plates; also called HAVCR2; Tim-3-overexpressing CHO-S cells

[2] = molecular target: T1, human TIM-3 full length, overexpressed …; experiment: cell-based ELISA on fixed CHO-S cells overexpressing human TIM-3;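 further: antibody binding at serial dilutions to PFA-fixed cells for 1 h at 37 °C, read as TMB colour signal after acid stop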
Experimental: (§1) The binding activity of anti-TIM-3 antibody to CHO-S cells overexpressing human TIM-3 is detected via a binding assay. […] TIM-3-overexpressing cells were immobilized on a 96-well plate. After the addition of the antibody, signal strength was used to determine the binding activity of the antibody to Tim-3-overexpressing CHO-S cells.
(§2) The cells were inoculated on a 96-well plate with 4E5/ml density, 100 μg/well, and cultured overnight. Supernatant was discarded and the plate was washed three times with PBS. 100 μl/well of 4% PFA was added into each well, and the plate was fixed at room temperature for 30 minutes. The plate was washed three times with PBS. The liquid was discarded, and 200 μl of blocking solution (5% skim milk (Guangming skim milk powder) diluted with PBS) was added to each well. The plate was incubated at 37° C. for 2.5 h. Then the blocking solution was discarded, and the plate was washed 5 times with PBST buffer (pH 7.4 PBS containing 0.05% Tween-20). 50 μl/well of various concentrations of antibodies to be tested (antibody via hybridoma purification or humanized antibody), diluted with sample buffer, were added into each well, and incubated at 37° C. for 1 h. […] The plate was washed 6 times with PBST, and 100 μl/well TMB chromogenic substrates (KPL, Cat, No., 52-00-03) was added to each well. The plate was incubated at room temperature for 5-15 min. Reaction was stopped by the addition of 50 μl of 1 M H₂SO₄ to each well.

[3] = molecular target: T2, Extracellular domain of TIM-3 with Flag and His tag (human); experiment: Biacore SPR; antibody captured by anti-human capture antibody on CM5, TIM-3-Flag-His in mobile phase
T2 construct: also called TIM-3-Flag-His
Text: The reaction signal was detected in real-time using Biacore instrument to obtain the association and dissociation curves. […] In the experiment, after each cycle of dissociation was finished, the biosensor chip was washed with the regenerative solution in the human capture antibody Kit.

[4] = molecular target: T2, Extracellular domain of TIM-3 with Flag …; experiment: Biacore SPR; antibody as stationary phase, 'TIM-3-His' as mobile phase
[5] = molecular target: T1, human TIM-3 full length, overexpressed …; experiment: cell-based ELISA on CHO-S cells overexpressing human TIM-3
Experimental: as §1, §2

| EC50 (read off the curve) [1] | EC50 [2] | Kd [3] | Kd [4] | EC50 [5] | Binder |
| --- | --- | --- | --- | --- | --- |
| ~0.2 nM | – | – | – | – | ABTim-3 (antibody, V domains shown) VH: QVQLQQPGAELVKPGASVKMSCKASGYTFTSYNMHWIKQTPGQGLEWIGDIYPGNGDTSYNQKFKGKATLTADKSSSTVYMQLSSLTSEDSAVYYCARVGGAFPMDYWGQGTSVTVSS VL: DIVLTQSPASLAVSLGQRATISCRASESVEYYGTSLMQWYQQKPGQPPKLLIYAASNVESGVPARFSGSGSGTDFSLNIHPVEEDDIAIYFCQQSRKDPSTFGGGTKLEIK |
| – | 0.187 nM | 1.34 nM | 0.599 nM | 0.503 nM | h1701-009 (antibody, human IgG4 S228P, kappa, V domains shown, Humanized IgG4 (S228P)/kappa) VH: QVQLVQSGAEVKKPGASVKVSCKASGYTFTDYYMNWVRQAPGQGLEWMGDIIPNNGGSKYNQKFKDRVTMTTDTSTSTAYMELRSLRSDDTAVYYCATWGYGSSYRWFDYWGQGTLVTVSS VL: DIQMTQSPSSLSASVGDRVTITCLASQPIGIWLAWYQQKPGKAPKLLIYAATSLADGVPSRFSGSGSGTDFTFTISSLQPEDIATYYCQQLYSSPWTFGGGTKVEIKR |
| – | 0.077 nM | 2.48 nM | – | – | h1799-010 (antibody, human IgG4 S228P, kappa, Humanized IgG4 (S228P)/kappa) heavy: not shown light: DIQMTQSPSSLSASVGDRVTITCRASDNIYSYLAWYQQKPGKAPKLLIYNAKTLAEGVPSRFSGSGSGTDFTLTISSLQPEDFATYYCQQHYGSPLTFGQGTKLEIKRTVAAPSVFIFPPSDEQLKSGTASVVCLLNNFYPREAKVQWKVDNALQSGNSQESVTEQDSKDSTYSLSSTLTLSKADYEKHKVYACEVTHQGLSSPVTKSFNRGEC |
| – | 0.095 nM | 1.89 nM | – | – | h1799-006 (antibody, human IgG4 S228P, kappa, Humanized IgG4 (S228P)/kappa) heavy: not shown light: DIQMTQSPSSLSASVGDRVTITCRASDNIYSYLAWYQQKPGKAPKLLVYNAKTLAEGVPSRFSGSGSGTDFTLTISSLQPEDFATYYCQQHYGSPLTFGQGTKLEIKRTVAAPSVFIFPPSDEQLKSGTASVVCLLNNFYPREAKVQWKVDNALQSGNSQESVTEQDSKDSTYSLSSTLTLSKADYEKHKVYACEVTHQGLSSPVTKSFNRGEC |
